Data as given in publication PMC2880403 (Journal of molecular biology, 2010).

Molecular target: T1, DsbA C33S (Escherichia coli, UniProt P0AEG4 20-208, C33S)
T1 sequence (looked up): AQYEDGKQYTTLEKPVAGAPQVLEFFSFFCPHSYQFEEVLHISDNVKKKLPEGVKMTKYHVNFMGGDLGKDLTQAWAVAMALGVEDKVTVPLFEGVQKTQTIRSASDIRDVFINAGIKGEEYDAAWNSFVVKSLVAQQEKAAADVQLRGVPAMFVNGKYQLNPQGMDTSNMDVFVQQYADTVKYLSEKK
Experiment: absorbance titration at 500 nm

B1: His-tagged "wildtype" DsbB containing mutations of nonessential cysteines (C8A, C49V) (enzyme, Escherichia coli, UniProt P0A6M2 1-176, looked up)
chain: MLRFLNQASQGRGAWLLMAFTALALELTALWFQHVMLLKPCVLCIYERVALFGVLGAALIGAIAPKTPLRYVAMVIWLYSAFRGVQLTYEHTMLQLYPSPFATCDFMVRFPEWLPLDKWVPQVFVASGDCAERQWDFLGLEMPQWLLGIFIAYLIVAVLVVISQPFKAKKRDLFGR
- binding result: binds
